Measured values reported in patent US20210115102.

Sequence of ALU30-2 (chain, as listed by the source): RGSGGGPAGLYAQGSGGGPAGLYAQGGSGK
Sequence of MMP-9, recombinant human (chain, as listed by the source): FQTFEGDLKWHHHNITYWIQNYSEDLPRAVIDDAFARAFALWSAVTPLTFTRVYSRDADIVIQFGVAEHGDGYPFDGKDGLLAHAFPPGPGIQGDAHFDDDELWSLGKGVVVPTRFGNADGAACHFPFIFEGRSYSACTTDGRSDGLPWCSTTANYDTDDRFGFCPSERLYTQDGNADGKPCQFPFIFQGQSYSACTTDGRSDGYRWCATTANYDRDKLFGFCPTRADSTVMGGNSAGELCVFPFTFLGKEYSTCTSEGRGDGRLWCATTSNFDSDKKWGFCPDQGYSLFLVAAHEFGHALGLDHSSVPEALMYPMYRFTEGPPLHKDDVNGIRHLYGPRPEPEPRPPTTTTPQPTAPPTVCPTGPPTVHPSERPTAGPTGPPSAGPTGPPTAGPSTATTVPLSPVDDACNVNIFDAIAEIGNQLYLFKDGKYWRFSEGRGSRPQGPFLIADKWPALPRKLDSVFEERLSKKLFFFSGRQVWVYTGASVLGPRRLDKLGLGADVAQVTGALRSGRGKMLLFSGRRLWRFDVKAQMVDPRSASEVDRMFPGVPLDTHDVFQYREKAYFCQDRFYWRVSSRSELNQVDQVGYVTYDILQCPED
Sequence of ALU30-13 (chain, as listed by the source): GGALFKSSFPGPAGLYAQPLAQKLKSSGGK
Sequence of ALU30-10 (chain, as listed by the source): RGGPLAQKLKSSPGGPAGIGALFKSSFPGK
Sequence of Factor Xa, recombinant human (chain): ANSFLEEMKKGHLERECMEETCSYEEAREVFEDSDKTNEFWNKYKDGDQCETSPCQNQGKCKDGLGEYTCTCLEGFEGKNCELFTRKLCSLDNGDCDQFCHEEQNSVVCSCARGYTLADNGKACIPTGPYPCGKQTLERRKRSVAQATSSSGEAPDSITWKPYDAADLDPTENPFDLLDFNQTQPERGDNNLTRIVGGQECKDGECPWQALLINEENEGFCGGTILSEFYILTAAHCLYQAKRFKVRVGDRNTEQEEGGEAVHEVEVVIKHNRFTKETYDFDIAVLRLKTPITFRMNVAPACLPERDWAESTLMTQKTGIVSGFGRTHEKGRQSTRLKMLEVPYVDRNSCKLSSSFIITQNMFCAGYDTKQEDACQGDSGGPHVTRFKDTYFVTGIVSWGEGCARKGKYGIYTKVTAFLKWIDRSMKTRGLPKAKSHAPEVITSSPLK
Sequence of ALU30-6 (chain, as listed by the source): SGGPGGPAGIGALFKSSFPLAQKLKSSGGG
Sequence of Hepsin, recombinant human (chain, as listed by the source): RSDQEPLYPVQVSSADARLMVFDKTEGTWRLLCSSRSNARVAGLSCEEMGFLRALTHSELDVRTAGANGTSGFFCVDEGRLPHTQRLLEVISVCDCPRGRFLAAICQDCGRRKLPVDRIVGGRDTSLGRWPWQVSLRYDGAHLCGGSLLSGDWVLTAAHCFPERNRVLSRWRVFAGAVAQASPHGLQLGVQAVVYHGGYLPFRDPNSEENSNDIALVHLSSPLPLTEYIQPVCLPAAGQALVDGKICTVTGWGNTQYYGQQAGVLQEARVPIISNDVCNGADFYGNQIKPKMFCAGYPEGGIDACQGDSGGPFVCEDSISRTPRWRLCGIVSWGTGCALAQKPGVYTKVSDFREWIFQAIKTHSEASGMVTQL
Sequence of ALU30-7 (chain, as listed by the source): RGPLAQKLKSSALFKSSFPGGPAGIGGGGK
Sequence of ALU30-18 (chain, as listed by the source): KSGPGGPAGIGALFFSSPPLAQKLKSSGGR
Sequence of ALU30-19 (chain, as listed by the source): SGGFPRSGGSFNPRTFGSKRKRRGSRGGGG
Sequence of ALU30-15 (chain, as listed by the source): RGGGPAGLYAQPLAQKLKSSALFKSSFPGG
Sequence of ALU30-8 (chain, as listed by the source): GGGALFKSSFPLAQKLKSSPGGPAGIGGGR
Sequence of ALU30-12 (chain, as listed by the source): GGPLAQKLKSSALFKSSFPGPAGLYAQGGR
Sequence of ALU30-17 (chain, as listed by the source): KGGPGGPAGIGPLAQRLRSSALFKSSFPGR
Sequence of ALU30-9 (chain, as listed by the source): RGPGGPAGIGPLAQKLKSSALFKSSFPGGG
Sequence of ALU30-1 (chain, as listed by the source): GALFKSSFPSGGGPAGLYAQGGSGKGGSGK
Sequence of ALU30-5 (chain, as listed by the source): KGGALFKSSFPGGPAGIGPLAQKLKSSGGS
Sequence of ALU30-14 (chain, as listed by the source): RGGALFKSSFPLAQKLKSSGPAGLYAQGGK
Sequence of ALU30-11 (chain, as listed by the source): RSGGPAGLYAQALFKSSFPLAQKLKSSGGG
Sequence of ALU30-3 (chain, as listed by the source): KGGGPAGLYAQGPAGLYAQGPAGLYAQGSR
Sequence of ALU30-16 (chain, as listed by the source): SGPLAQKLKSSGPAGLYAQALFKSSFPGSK
Sequence of ALU30-4 (chain, as listed by the source): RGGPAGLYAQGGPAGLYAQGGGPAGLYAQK

Substance	30-mer substrate degradation (MSP-MS) (ALU30-14)	30-mer substrate degradation (MSP-MS) (ALU30-7)	30-mer substrate degradation (MSP-MS) (ALU30-3)	30-mer substrate degradation (MSP-MS) (ALU30-5)	30-mer substrate degradation (MSP-MS) (ALU30-12)	30-mer substrate degradation (MSP-MS) (ALU30-13)	30-mer substrate degradation (MSP-MS) (ALU30-15)	30-mer substrate degradation (MSP-MS) (ALU30-10)	30-mer substrate degradation (MSP-MS) (ALU30-2)	30-mer substrate degradation (MSP-MS) (ALU30-8)	30-mer substrate degradation (MSP-MS) (ALU30-1)	30-mer substrate degradation (MSP-MS) (ALU30-9)	30-mer substrate degradation (MSP-MS) (ALU30-6)	30-mer substrate degradation (MSP-MS) (ALU30-4)	30-mer substrate degradation (MSP-MS) (ALU30-16)	30-mer substrate degradation (MSP-MS) (ALU30-19)	30-mer substrate degradation (MSP-MS) (ALU30-18)	30-mer substrate degradation (MSP-MS) (ALU30-17)	30-mer substrate degradation (MSP-MS) (ALU30-11)	further results
MMP-9, recombinant human	The slowest peptides bear the MMP14_1 motif near the C-terminus of the 30-mer peptide.	The FAPα_1 motif was not cleaved by MMP9, however, when followed either by the ADAM17_2 motif or the spacing residues GG.	The most efficient MMP9 substrates were those that bore three-repeats of the MMP14_1 motif.	The FAPα_1 motif was not cleaved by MMP9, however, when followed either by the ADAM17_2 motif or the spacing residues GG.	The slowest peptides bear the MMP14_1 motif near the C-terminus of the 30-mer peptide.	The next most efficient substrates contained the pair of motifs where MMP14_1 was followed directly by ADAM17_2.	The next most efficient substrates contained the pair of motifs where MMP14_1 was followed directly by ADAM17_2.	the FAPα_1 motif was also cleaved within the peptides bearing FAPα_1 directly followed by the CTSL1_1 motif at PGGPAG|GALF (SEQ ID NO: 247); these were lower efficiency cleavages	The single or double MMP14_1 motif-bearing peptides were next in the order.	The FAPα_1 motif was not cleaved by MMP9, however, when followed either by the ADAM17_2 motif or the spacing residues GG.	The single or double MMP14_1 motif-bearing peptides were next in the order.	The FAPα_1 motif was not cleaved by MMP9, however, when followed either by the ADAM17_2 motif or the spacing residues GG.	the FAPα_1 motif was also cleaved within the peptides bearing FAPα_1 directly followed by the CTSL1_1 motif at PGGPAG|GALF (SEQ ID NO: 247); these were lower efficiency cleavages	The most efficient MMP9 substrates were those that bore three-repeats of the MMP14_1 motif.						product formation at individual bonds (MSP-MS) (ALU30-2): the specific cleavage of the Alu30-2 peptide was more efficient than the Alu30-1 peptide; product formation at individual bonds (MSP-MS) (ALU30-1): the specific cleavage of the Alu30-2 peptide was more efficient than the Alu30-1 peptide
Thrombin, recombinant human	Thrombin showed higher activity than Factor Xa, and it cleaved each of the 30-mer peptides.	Thrombin showed higher activity than Factor Xa, and it cleaved each of the 30-mer peptides.	The peptides Alu30-1 and Alu30-3 were the most rapidly cleaved in the library	Thrombin showed higher activity than Factor Xa, and it cleaved each of the 30-mer peptides.	the peptides Alu30-12, Alu30-13 and Alu30-15, with MMP14_1 motifs in combination with ADAM17_2 and CTSL1_1, were cleaved at lower efficiency by thrombin	the peptides Alu30-12, Alu30-13 and Alu30-15, with MMP14_1 motifs in combination with ADAM17_2 and CTSL1_1, were cleaved at lower efficiency by thrombin	the peptides Alu30-12, Alu30-13 and Alu30-15, with MMP14_1 motifs in combination with ADAM17_2 and CTSL1_1, were cleaved at lower efficiency by thrombin	Thrombin showed higher activity than Factor Xa, and it cleaved each of the 30-mer peptides.	The peptide Alu30-2, bearing two MMP14_1 motifs, was less susceptible to thrombin	Thrombin showed higher activity than Factor Xa, and it cleaved each of the 30-mer peptides.	The peptides Alu30-1 and Alu30-3 were the most rapidly cleaved in the library	The two alternate ADAM17 motifs were cleaved with similar efficiency (peptides Alu30-17 vs Alu30-9).	the CTSL1_2 motif had lower cleavage activity than did the CTSL1_1 motif (peptides Alu30-18 vs Alu30-6)	Alu30-4 was also an efficient substrate	Thrombin showed higher activity than Factor Xa, and it cleaved each of the 30-mer peptides.	Thrombin showed higher activity than Factor Xa, and it cleaved each of the 30-mer peptides.	the CTSL1_2 motif had lower cleavage activity than did the CTSL1_1 motif (peptides Alu30-18 vs Alu30-6)	The two alternate ADAM17 motifs were cleaved with similar efficiency (peptides Alu30-17 vs Alu30-9).	Thrombin showed higher activity than Factor Xa, and it cleaved each of the 30-mer peptides.	
Factor Xa, recombinant human	all other peptides bearing a CTSL1_1 motif were cleaved by Factor Xa at either ALF|KSSFP (SEQ ID NO: 198) or ALFKS|SFP (SEQ ID NO: 198)	all other peptides bearing a CTSL1_1 motif were cleaved by Factor Xa at either ALF|KSSFP (SEQ ID NO: 198) or ALFKS|SFP (SEQ ID NO: 198)		the only library peptide with significant cleavage was Alu30-5, cleaved at the CTSL1_1 motif ALFKS|SFP (SEQ ID NO: 198), upstream of a FAPα_1 motif	all other peptides bearing a CTSL1_1 motif were cleaved by Factor Xa at either ALF|KSSFP (SEQ ID NO: 198) or ALFKS|SFP (SEQ ID NO: 198)	all other peptides bearing a CTSL1_1 motif were cleaved by Factor Xa at either ALF|KSSFP (SEQ ID NO: 198) or ALFKS|SFP (SEQ ID NO: 198)	all other peptides bearing a CTSL1_1 motif were cleaved by Factor Xa at either ALF|KSSFP (SEQ ID NO: 198) or ALFKS|SFP (SEQ ID NO: 198)	all other peptides bearing a CTSL1_1 motif were cleaved by Factor Xa at either ALF|KSSFP (SEQ ID NO: 198) or ALFKS|SFP (SEQ ID NO: 198)		all other peptides bearing a CTSL1_1 motif were cleaved by Factor Xa at either ALF|KSSFP (SEQ ID NO: 198) or ALFKS|SFP (SEQ ID NO: 198)	all other peptides bearing a CTSL1_1 motif were cleaved by Factor Xa at either ALF|KSSFP (SEQ ID NO: 198) or ALFKS|SFP (SEQ ID NO: 198)	all other peptides bearing a CTSL1_1 motif were cleaved by Factor Xa at either ALF|KSSFP (SEQ ID NO: 198) or ALFKS|SFP (SEQ ID NO: 198)	all other peptides bearing a CTSL1_1 motif were cleaved by Factor Xa at either ALF|KSSFP (SEQ ID NO: 198) or ALFKS|SFP (SEQ ID NO: 198)		all other peptides bearing a CTSL1_1 motif were cleaved by Factor Xa at either ALF|KSSFP (SEQ ID NO: 198) or ALFKS|SFP (SEQ ID NO: 198)	Peptide Alu30-19 with this motif was completely degraded before the 5 min time point.	The peptide with the motif CTSL1_2 was cleaved at the lowest efficiency.	all other peptides bearing a CTSL1_1 motif were cleaved by Factor Xa at either ALF|KSSFP (SEQ ID NO: 198) or ALFKS|SFP (SEQ ID NO: 198)	all other peptides bearing a CTSL1_1 motif were cleaved by Factor Xa at either ALF|KSSFP (SEQ ID NO: 198) or ALFKS|SFP (SEQ ID NO: 198)	
Hepsin, recombinant human																Alu30-19 was cleaved at all three motifs within the first 15 min of the reaction	the alternate CTSL1_2 motif was also cleaved at a much slower rate than CTSL1_1	The ADAM17_1 motif was less efficiently cleaved than ADAM17_2		apparent catalytic efficiency (ALU30-14): The authentic peptide Alu30-19, as well as the top cleaved peptides Alu30-8,-9, -12, and -14 all had apparent catalytic efficiencies on the same order of 10^5 M^-1s^-1.; apparent catalytic efficiency (ALU30-19): The authentic peptide Alu30-19, as well as the top cleaved peptides Alu30-8,-9, -12, and -14 all had apparent catalytic efficiencies on the same order of 10^5 M^-1s^-1.; apparent catalytic efficiency (ALU30-12): The authentic peptide Alu30-19, as well as the top cleaved peptides Alu30-8,-9, -12, and -14 all had apparent catalytic efficiencies on the same order of 10^5 M^-1s^-1.; cleavage efficiency of 30-mer library peptides (ALU30-15): it had slightly higher hepsin susceptibility; apparent catalytic efficiency (ALU30-8): The authentic peptide Alu30-19, as well as the top cleaved peptides Alu30-8,-9, -12, and -14 all had apparent catalytic efficiencies on the same order of 10^5 M^-1s^-1.; apparent catalytic efficiency (ALU30-9): The authentic peptide Alu30-19, as well as the top cleaved peptides Alu30-8,-9, -12, and -14 all had apparent catalytic efficiencies on the same order of 10^5 M^-1s^-1.
